According to article PMC4549789:

Target: Escherichia coli β sliding clamp (Escherichia coli) (UniProt P0A988)
UniProt P0A988, sequence (P0A988 whole entry): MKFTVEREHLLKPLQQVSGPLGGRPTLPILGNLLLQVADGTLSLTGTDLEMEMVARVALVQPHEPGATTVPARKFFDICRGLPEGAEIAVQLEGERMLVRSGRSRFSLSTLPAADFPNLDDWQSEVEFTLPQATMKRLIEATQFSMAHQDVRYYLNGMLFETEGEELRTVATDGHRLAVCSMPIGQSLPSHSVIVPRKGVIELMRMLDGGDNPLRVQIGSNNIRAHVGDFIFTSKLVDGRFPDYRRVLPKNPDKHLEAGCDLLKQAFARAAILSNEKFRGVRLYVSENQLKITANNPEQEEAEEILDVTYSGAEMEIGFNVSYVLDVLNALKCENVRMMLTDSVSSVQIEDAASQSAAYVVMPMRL

papillae in the in vivo papillation assay of transposition in E. coli DH5α (quantification for 8 colonies): 3.15
Substance: Acidiphilium IS1634 transposase, wild type (enzyme)
